From publication PMC2793330 (Journal of structural biology, 2009)

B1: γ-tubulin (Tub4p), His-tagged, as in the fluorescent-protein-tagged γ-TuSC constructs (natural protein, S. cerevisiae, UniProt P53378 1-473, looked up)
chain: MGGEIITLQAGQCGNHVGKFLWSQLAKEHAIGTDGLSQLPDSSTERDDDTKPFFRENSRNKFTPRAIMMDSEPSVIADVENTFRGFFDPRNTWVASDGASAGNSWANGYDIGTRNQDDILNKIDKEIDSTDNFEGFQLLHSVAGGTGSGLGSNLLEALCDRYPKKILTTYSVFPARSSEVVVQSYNTILALRRLIEDSDATVVFDNASLLNISGKVFRNPNIDLQHTNQLISTIISSVTNSIRFPSYMYSSMSSIYSTLIPSPELHFLSPSFTPFTSDYIHDDIAHKGHSSYDVMLDLLDPSNSLVSTAMNNPTYFNVYNTIIGNVEPRQISRAMTKLQQRIKFPSWSSSAMHVNIGRRSPYLPLQPNENEVSGMMLSNMSTVVNVFENACNTFDKVFAKGAFLNNYNVGDLFQSMQNVQDEFAESREVVQSLMEDYVAAEQDSYLDDVLVDDENMVGELEEDLDADGDHKLV
B2: γ-tubulin (Tub4p), His-tagged with the longer tag linker, as in the γ-TuSC without fluorescent protein tag (natural protein, S. cerevisiae, UniProt P53378 1-473, looked up)
chain: B1 chain
B3: Spc97p with YFP on its N-terminus (of γ-TuSC:YFPSpc97p) (natural protein, S. cerevisiae, UniProt P38863 1-823, looked up)
chain: MEIKEVDDRAELLRYTNNIPLLGKLVNHQPLWSTNPKLKSFSLEKISAPDQRRVQEALVVKDLLNVLIGLEGTYIRYFNDYEPSDPETPIEFKIAKKMDPSFKTFSRRIVRYGKQYMILTRAYEKWSDTSFGMVLQRFAYEIRRFLEDVYLKTLVERLERDFNKVPNFSIRELEQIINETEVNKQMELLYNIYEEIFREIEERRTNQSSQEDFNNFMDSMKNESSLHLRLMVAFDTTVYPVPKGGAILKIFQQKILENLGDRSSVMFLKKLLNNISQDYCTMLYEWLTQGILNDPYQEFMTYDDLEGKTDNIFDTRDRAWDTQYFIRKDVLLRDCDSEEDKNLLFKMLRTGILLKVVRASLQIPTIPSNSSDITIQEINDFADLMEGSNLELYVDKCYSRANEIFLKLFFQGYDLINVLKHLQQIFLGYQSGHNVLKFLTKNMGELTKHYRNDNNANYDKLLQNFELERQSENPNNLMRQLLMIQFDTETLPQVLSHYLQIYPEVPENNSANDDSDPLMHANNFKNMNAILFDELSKERTGAYHGSNLELYTPKSAIYHLKFDINIPYPLNIIISRTCMIKYQIILRYQLVLQYHSRLLDETWMDLNKTPSWKYRGYSHTVKRRIVRATRVLHAKMNHFIKTIMEYFNQNVIDKEVYSLEKCYRNPTLAVAIQNELEGGLTNIMTNRCLSDLIPLQLQIFDIVYKFCKFIKSMRAKLCQLDPVLYEKHKSGMMKTLNEGYRTNNGGQEDVGYQEDAALELIQKLIEYISNASSIFRKCLINFTQELSTEKFDFYDSSSVDAAGIERVLYSIVPPRSASASSQR
B4: Spc97p with YFP on its C-terminus (of γ-TuSC:Spc97pYFP) (natural protein, S. cerevisiae, UniProt P38863 1-823, looked up)
chain: B3 chain
B5: Spc97p, without fluorescent protein tag (natural protein, S. cerevisiae, UniProt P38863 1-823, looked up)
chain: B3 chain

What was measured:
Test in all cases: co-purification, SDS-PAGE with band densitometry
[1] = target: B5
[2] = target: T1, Spc98p, without fluorescent protein tag (S. cerevisiae, UniProt P53540 1-846)
T1 sequence (looked up): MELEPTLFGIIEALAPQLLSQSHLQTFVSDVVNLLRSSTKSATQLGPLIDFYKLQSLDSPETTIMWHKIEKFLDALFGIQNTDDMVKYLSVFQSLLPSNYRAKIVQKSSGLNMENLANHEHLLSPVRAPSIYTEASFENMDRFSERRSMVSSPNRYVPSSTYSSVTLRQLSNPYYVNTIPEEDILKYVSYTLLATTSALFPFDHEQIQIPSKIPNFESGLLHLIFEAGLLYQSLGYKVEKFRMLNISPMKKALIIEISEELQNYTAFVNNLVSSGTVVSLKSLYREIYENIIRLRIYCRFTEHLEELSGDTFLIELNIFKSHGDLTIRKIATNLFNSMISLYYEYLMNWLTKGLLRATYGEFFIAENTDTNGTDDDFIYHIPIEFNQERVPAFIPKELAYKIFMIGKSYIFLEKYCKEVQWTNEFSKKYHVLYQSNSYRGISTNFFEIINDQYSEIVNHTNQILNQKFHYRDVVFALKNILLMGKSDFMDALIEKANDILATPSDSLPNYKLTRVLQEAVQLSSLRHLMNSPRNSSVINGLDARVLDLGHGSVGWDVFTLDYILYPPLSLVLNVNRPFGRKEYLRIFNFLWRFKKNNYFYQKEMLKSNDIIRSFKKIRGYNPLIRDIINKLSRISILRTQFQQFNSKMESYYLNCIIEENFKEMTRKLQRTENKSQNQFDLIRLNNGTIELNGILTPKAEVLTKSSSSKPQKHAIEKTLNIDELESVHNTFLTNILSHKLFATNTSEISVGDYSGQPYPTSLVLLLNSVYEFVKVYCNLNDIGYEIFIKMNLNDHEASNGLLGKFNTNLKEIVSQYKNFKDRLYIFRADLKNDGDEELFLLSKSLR

[3] = target: B4
[4] = target: B3
[5] = target: T2, Spc98p with CFP on its N-terminus (of γ-TuSC:CFPSpc98p) (S. cerevisiae, UniProt P53540 1-846)
T2 sequence (looked up): T1 sequence (looked up)

[6] = target: T3, Spc98p with CFP on its C-terminus (of γ-TuSC:Spc98pCFP) (S. cerevisiae, UniProt P53540 1-846)
T3 sequence (looked up): T1 sequence (looked up)

In the case of B1, the “stoichiometry N” value [1] is reported as 2, the “stoichiometry N” value [2] is reported as 2 and the “stoichiometry N” value [3] is reported as 2. For the same binder, the “stoichiometry N” value [4] was 2, the “stoichiometry N” value [5] was 2 and the “stoichiometry N” value [6] was 2.

In the case of B2, the “stoichiometry N” value [1] is reported as 2 and the “stoichiometry N” value [2] is reported as 2.

B3 was tested, and the “stoichiometry N” value [2] was 1.

With B4 the “stoichiometry N” value [2] was 1.

With B5 the “stoichiometry N” value [2] was 1, the “stoichiometry N” value [5] was 1 and the “stoichiometry N” value [6] was 1.
